The results in this text go back to PMC5551578 (The Journal of Experimental Medicine, 2017).

Numbering of substitutions follows the chain as printed.

The Kd is the free concentration of one partner at which half of the binding sites on the other are occupied at equilibrium, for simple one-to-one binding. Higher therefore signals a looser complex.

In test [1] the target is H7N9 HA (A/Shanghai/1/2013) (Influenza A virus A/Shanghai/1/2013 …, strain).
In test [2] the target is T1, H1N1 HA (A/California/04/2009) (Influenza A virus A/California/04/2009 …, UniProt C3W5S1, strain).
Test [3] concerns the target T1, H1N1 HA (A/California/04/2009). Nature of the test: SPR. As to conditions: both partners purified.

B1: H7-Ab4 (antibody, V domains shown)
VH: EVQLVESGAEVKKPGSSVKVSCKASGGTFSSHGINWVRQAPGQRLEWMGGINPISGTPHYAQKFQGRVTITADESTTTSYMELSSLRSEDTAVYYCARIHRAGLEANYWGQGTLVTVSS
VL: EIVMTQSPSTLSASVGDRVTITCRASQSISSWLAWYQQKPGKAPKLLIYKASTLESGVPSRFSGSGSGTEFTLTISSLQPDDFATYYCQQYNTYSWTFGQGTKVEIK
For B1, the binding result in test [1] was “binds”.

B2: H1-Ab18 (antibody, V domains shown)
VH: EVQLVESGGGLLKPGGSLRLSCAASGFTFNNAWMSWVRQPPGKGLEWVGRIKSESDDETPDYAAPVKGRFDISRDDSKNMLYLQMSSLKTEDTAVYYCATDHSSHYYDRPDYWGQGTLVTVSS
VL: QSVLTQSPSASASLGASVKLTCILSSGHSDYAIAWHQQQPEKGPRYLMKLNIDGSHSKGDGIPDRFSGSTSGAERYLTISSLQSEDEADYYCQTWDTGIHVFGGGTRLTVL
Regarding B2, the binding result in test [2] is listed as “binds”.

B3: H1-Ab53 (antibody, V domains shown)
VH: EVQLVESGLRLVKPSETLSVTCTVSGGSMSTTSYYWGWIRQPPGKALEWIGSIYYDGNSYYKPSLRSRFTMLVDTSKNQFSLKLTSVTAADTAVYYCARMSYMDYDFSTGYWNWFDPWGQGTLVTVSS
VL: QSVLTQPASVSGSPGQSITISCTGTRRDVGSYRLVSWYQHHPGKAPKLMIYEGTKRPSGVSDRFSGSKSGNTASIIISGFQAEDEADYYCCSYAGSSTWVFGGGTRVTVL
B3: in test [2], the binding result is “binds”.

B4: H7-Ab5 (antibody, V domains shown)
VH: EVQLVESGAEMRKPGSSVKVSCKASGGTFNTYGISWVRQAPGQGLEWMGGIIPMFGTENHAQKFQGRVTITADKSTSIAYMELSSLTSEDTAVYYCARAPVVGSRNVYYYHGLDVWGQGTTVTVSS
VL: SYELTQPPSVSVSPGQTARITCSGDALPKRYAFWYQQKPGQAPVLVIYKDTERPSGIPERFSGSRSGTTVTLTISGVQAEDEGDYYCQSADSSDPCLFGGGTKLTVL
On to B4, for which the binding result in test [1] is “binds”.

B5: H7-Ab10 (antibody, V domains shown)
VH: WVQLVESGGGLVQPGGSLRLSCVDSGSTFSKYWMTWVRQAPGKGLEWVANIKEDGSKEYYMESLKGRFTISRDNAKNSLYLQISTLRAEDTAVYYCATSSGWRFEVWGRGTTVTVSS
VL: QSALTQPPSASGSPGQSVTISCTGTSSDVGTYNYVSWYQQQADKAPKLIIFDVDKRPSGVPDRFSGSKSGNTASLTVSGLQADDEADYYCSSYAGTKHWIFGGGTKLTVL
Regarding B5, the binding result in test [1] is recorded as “binds”.

B6: H1-Ab51 (antibody, V domains shown)
VH: EVQLVESGPGLVKPSETLSLTCTVSGGSISSNTYYWGWIRQPPGKGLEWIETIYYSGSTYYNPSLKSRVTISVDTSKNQFSLKLSSVTAADSAVYYCARSYCGGGCNFDAFDIWGQGTVVTVSS
VL: QSVLTQPASVSGSPGQSITISCTGSSSDVGGYNYVSWYQQHPGKAPKLMIFDVSNRPSGVSNRFSGSKSGNTASLTISGLQAEDEADYYCSSYTSNITLVFGGGTKLTVL
Consider B6, for which the binding result in test [2] is “binds”.

B7: H7-Ab13 (antibody, V domains shown)
VH: EVQLVESGPGLVKPSQTLSLTCTVSDGTIGSDAYHWSWIRQYPGRGLEWIGSFYYSGNTYYNPSLKSRLTISVDTSKNQFSLKLNSVTAADTAVYYCARNSAYCTDTRCYNGGGWFHPWGQGTTVTVSS
VL: DIVMTQSPGTLSLSPGERATLSCRASQSVSSTYLAWYQQKPGQAPRFLIYGASRRATGIPDRFSGSGSGTDFTLTISRVEPEDFTVYYCQQYGSSPITFGQGTRLEIK
For the molecule B7, the binding result in test [1] is recorded as “binds”.

B8: H7-Ab11 (antibody, V domains shown)
VH: QVQLQESGPRLVKPSQTLSLTCAVSGGSITSNDYNWSWIRQHPGKGLEWIGYIYHSGNTFYNPALESRVSMSVDTSKNQFSLRLTSVTAADTAVYFCARTQRSTVAHIVGPVQGRFHFDYWSQGTLVTVSS
VL: DIQMTQSPGTLSLSPGERVTLSCRASRSVSPYYLAWYQQKPGQAPRLLIYGSSTRATGIPDRFSGSGSGTDFTLTINKLEPEDFAIYYCQQYGRSSGFVFGPGTKVDIK
As to B8, in test [1], the binding result is reported as “binds”.

B9: H1-Ab23 (antibody, V domains shown)
VH: EVQLVESGGGLVKPGGSLRLSCAASGFTFSSYSMHWVRQAPGKGLEWISSISSTGNYIYYADSVKGRFTISRDNARNSLYAQLNSLRAEDTAVYYCATGVTSSYGGHPGYFDSWGQGTLVTVSS
VL: DIRMTQSPSSLSASVGDRVTITCQASQDISKYLNWYQQKPGKAPKVLIYDASNLETGVPSRFSGSRSGTDFTFTISRLQPEDIGTYYCQQYDDPFLTFGGGTKVEIK
Turning to B9, the binding result in test [2] is listed as “binds”.

B10: H1-Ab19 (antibody, V domains shown)
VH: B9 VH with I48V, T54I, N56T, R76K, A81L, A88V, Y94F, H107Y, P108S
VL: B9 VL with R3V, Y32H, V46L, R66G, T72S, R77S, G84A, D93N
notes: IgG1; source: HEK293T, transfected with heavy and light chain plasmids; purified mAbs
Consider B10, for which the Kd in test [3] was 1 pM.

B11: H7-Ab14 (antibody, V domains shown)
VH: EVQLVESGPRLVKPSGTLSLTCAVSDDSISSAGYYWGWIRQSPGKGLEWIAAFFFGGSAYYNPSLKSRLTISTDTSENQFSLSLASVTAADTAVYYCAVIQLSTPPVPFEIWGQGTLVTVSS
VL: EIVMTQSPGTLSLSPGERATLSCRASQIISSNYLAWYQQKPGQAPRLLIFGASSRATGTPDRFSGSGSGTDFTLTISRLEPEDFVVYYCHQYDSSWYTFGQGTKVEIK
In the case of B11, the binding result in test [1] is reported as “binds”.

B12: H7-Ab3 (antibody, V domains shown)
VH: EVQLVESGAEVKKPGSSVKVSCKTSGGTFNIYAINWVRQAPGQGLEWMGMIIPIFGSPKTAREFQDRLTIDADTSTSTAYMELSNLTSEDTATYFCSRVADDYDFWSPNKFWGQGTLVTVSS
VL: DIQLTQSPSTLSASVGDTVTITCRASQSVNSWLAWYQQKPGKAPKLLIYKTFNLETGVPSRFSATGSGTEFTLTISRLQPDDFATYYCQQYNSNSHFGQGTKVEIK
B12: the binding result in test [1] is “binds”.

B13: H1-Ab38 (antibody, V domains shown)
VH: EVQLVESGGGVVQPGRSLRLSCAASGFTFSSNAMHWVRQAPGKGLEWVAVISSDGSSKYYADSVKGRFTISRDNSKNTLFLQMNSLRADDTAIYYCARRYDGFDYWGQGSLVTVSS
VL: QSVLTQPASVSGSPGQSITISCTGTSSDVGSYNLVSWYQQHPGKAPKLMIYEVNKRPSGVSNRFSGSKSGNTASLTISGLQAEDEADYHCCSYAGSYTYVFGGGTKLTVL
On to B13, for which, in test [2], the binding result is given as “binds”.

B14: H7-Ab8 (antibody, V domains shown)
VH: EVQLVQSGGGVVLPGRSLRLSCAASGFTFSNHGMHWVRQAPGKGLEWMAVIWSDGTTKYYADSVKGRFTISRDNSKNTVYLQMNSLRAEDTAVYYCAREVIYSGYFFDHWGQGTTVTVSS
VL: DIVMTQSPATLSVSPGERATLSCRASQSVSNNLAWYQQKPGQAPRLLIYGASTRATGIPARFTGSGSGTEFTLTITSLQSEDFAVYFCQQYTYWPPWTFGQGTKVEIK
As for B14, in test [1], the binding result is reported as “binds”.

B15: H7-Ab12 (antibody, V domains shown)
VH: EVQLVESGPGLVKPAQTLSLTCTVSGGSISSGGDYWSWIRQHPGKGLEWIGYIYYSGNAFYNPSLKSRVSMSVDTSKNQFSLKLSSVSAADTAVYYCARVRGVYFWGQGTLATVSS
VL: EIVMTQSPGTLSLSPGERATLSCRASQSVSSSHLAWYQQKPGQAPRLLIYGASSRATGIPDRFSGSGSGTDFTLTISRLEPEDFAVYYCQQYGSSLPPWTFGQGTKVEIK
Regarding B15, the binding result in test [1] is given as “binds”.

B16: H7-Ab7 (antibody, V domains shown)
VH: QVQLQESGGGLVQPGGSLRLSCAASGFTFSAYAMNWVRQAPGKGLDWVSGIGGNGGITKYADSVKGRFTISRDNSKKTLYLQMNSLTAEDTAVYYCAKDASWDVRGWFDPWGQGTLVTVSS
VL: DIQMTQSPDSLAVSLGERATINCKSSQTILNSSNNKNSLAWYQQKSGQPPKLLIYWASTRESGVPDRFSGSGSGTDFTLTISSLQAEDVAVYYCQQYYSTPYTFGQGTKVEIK
In the case of B16, in test [1], the binding result is listed as “binds”.

B17: H7-Ab6 (antibody, V domains shown)
VH: EVQLVESGGGLVKPGGSLRLSCTASGFTFSDYPMSWVRQAPGKGLEWLSSISTGSTYIYYADSVKGRFTISRDNAQNSMYLQMNSLRAEDTAIYYCARGAKVELALGWYFDLWGRGTLVTVSS
VL: QSVLTQPPSVSAAPGQKVTISCSGSNSNIGNNFVSWYQQLPGTAPKLLIYDNNKRPSGIPDRVSGSKSGTSATLGITGLQTGDEADYYCGTWDNRLSAAVFGGGTKLTVL
In the case of B17, the binding result in test [1] is given as “binds”.

B18: H7-Ab1 (antibody, V domains shown)
VH: EVQLVQSGAEVKKPGASVKVSCKTSYAMHWVRQAPGQRLEWMGWINAGNGYTKYSPKFQGRVTFTWDTSASTAYMELNSLRSEDTAVYYCAHGSGSYLNWFDPWGQGTLVTVSS
VL: QSVLTQPASVSGSPGQSITISCTGTSSDVGGYNYVSWYQQHPGKAPKLMIYEVSNRPSGVSNRFSGSKSGNTASLTISGLQAEDEVDYYCTSYTSSSTLVAFGRGTKLTVL
On to B18, for which the binding result in test [1] is given as “binds”.

B19: H1-Ab61 (antibody, V domains shown)
VH: EVQLLESGAEVKKPGESLKISCKTSGYTFPRYWVGWVRQMPGKGLEWMGFIYPGDATTRYSPSFQGQVTISADKSINTAYLHWSSLKASDTAVYFCARHPGDKSFYYYGLDVWGQGTTVTVSS
VL: AIRMTQSPSTLSASVGDRVTITCRASQSIRSWLAWYQQKPGKAPKLLISKASSLQSGVPSRFSGTGSGTEFTLTISSLQPDDFATYYCQQYNSDSITFGQGTRLEIK
Consider B19, for which the binding result in test [2] is given as “binds”.

B20: H1-Ab26 (antibody, V domains shown)
VH: EVQLVQSGGGLVQPGSSLRLSCAASGFTFSNFAMSWVRQAPGKGLEWVSTINAGSGSKDYANSVKGRFTISRDNTKNTLYLQMKSLRAEDTAVYYCAKDTGHTIFGVVRPYYNGMDVWGQGTTVTVSS
VL: DNQMTQSPLSLPVTLGQPASISCRSSQSLVYSDGNTYLNWFQQRPGQSPRRLIYKVSNRDSGVPDRFSGSGSGTDFTLKISRVEAEDVGVYYCMQGTHPYTFGQGTKVEIK
Turning to B20, in test [2], the binding result is on record as “binds”.

B21: H1-Ab27 (antibody, V domains shown)
VH: B20 VH
VL: EIVMTQSPGTLSLSPGERATLSCRASQSVSSSYLAWYQQKPGQAPRLLIYGASSRATGIPDRFSGSGSGTDFTLTITRLEPEDFAVYYCQQYGGSPMYTFGQGTKVEIK
For B21, the binding result in test [2] is reported as “binds”.

B22: H1-Ab33 (antibody, V domains shown)
VH: EVQLVESGGGLVQPGGSLRLSCAASGFTFSSYAMSWVRQAPGKGLEWVSGINAGGGSTFYADSVKGRFTISRGNSKNTLYLQMHSLRAEDTAIYYCAKDQGNAIFGLVIPSYYFDYWGQGTLVTVSS
VL: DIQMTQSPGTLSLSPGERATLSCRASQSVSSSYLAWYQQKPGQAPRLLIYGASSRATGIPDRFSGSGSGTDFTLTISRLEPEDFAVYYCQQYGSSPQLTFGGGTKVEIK
As to B22, the binding result in test [2] was “binds”.

B23: H1-Ab37 (antibody, V domains shown)
VH: B22 VH with E1L, G73D
VL: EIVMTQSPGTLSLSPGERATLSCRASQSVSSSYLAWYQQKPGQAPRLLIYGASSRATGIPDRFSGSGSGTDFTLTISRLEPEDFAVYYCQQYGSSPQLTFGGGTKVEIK
In the case of B23, the binding result in test [2] was “binds”.
